# Test results: patent publication US11098109B2, “Single-chain variable fragment anti-CD133 antibodies and uses thereof” (REGENTS OF THE UNIVERSITY OF MINNESOTA, priority 2010, dated 2021)
# T1: CD133 (Homo sapiens, UniProt O43490)
# T1 construct: endogenous in cells
# T1 sequence (O43490 20-865): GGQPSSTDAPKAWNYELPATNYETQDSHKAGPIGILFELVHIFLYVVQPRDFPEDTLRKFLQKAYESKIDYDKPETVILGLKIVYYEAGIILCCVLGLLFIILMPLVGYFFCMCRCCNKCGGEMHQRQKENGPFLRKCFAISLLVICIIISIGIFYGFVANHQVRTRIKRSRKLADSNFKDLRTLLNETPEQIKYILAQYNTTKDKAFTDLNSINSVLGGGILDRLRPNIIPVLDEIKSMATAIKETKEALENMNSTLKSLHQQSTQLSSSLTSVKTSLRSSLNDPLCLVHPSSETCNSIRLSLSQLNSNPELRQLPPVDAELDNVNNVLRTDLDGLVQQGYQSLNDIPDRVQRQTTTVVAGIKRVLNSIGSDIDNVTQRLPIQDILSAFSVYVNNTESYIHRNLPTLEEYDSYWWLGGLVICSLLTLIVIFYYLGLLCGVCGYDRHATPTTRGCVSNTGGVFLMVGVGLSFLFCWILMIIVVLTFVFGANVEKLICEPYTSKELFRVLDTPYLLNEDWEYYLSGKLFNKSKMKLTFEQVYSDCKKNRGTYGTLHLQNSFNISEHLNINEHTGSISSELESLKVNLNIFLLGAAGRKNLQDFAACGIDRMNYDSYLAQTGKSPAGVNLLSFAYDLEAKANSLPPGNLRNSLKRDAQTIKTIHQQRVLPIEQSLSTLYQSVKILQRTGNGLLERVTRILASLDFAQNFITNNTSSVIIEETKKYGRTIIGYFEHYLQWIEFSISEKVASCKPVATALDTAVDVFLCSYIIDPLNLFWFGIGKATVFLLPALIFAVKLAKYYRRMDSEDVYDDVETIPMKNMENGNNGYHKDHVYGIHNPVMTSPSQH
# B1: Hybridoma Clone 7: monoclonal antibody produced by Hybridoma Clone 7 that specifically binds to human CD133 (antibody, V domains shown)
# VL: DIVLSQSPAIMSASPGEKVTISCSASSSVSYMYWYQQKPGSSPKPWIYRTSNLASGVPARFSGSGSGTSYSLTISSMEAEDAATYYCQQYHSYPPTFGAGTKLELK
# VH: LEVKLVESGPELKKPGETVKISCKASGYTFTDYSMHWVNQAPGKGLKWMGWINTETGEPSYADDFKGRFAFSLETSASTAYLQINNLKNEDTATYFCATDYGDYFDYWGQGTTLTVSS
# Tests used:
# CD133 [1] = molecular target: T1, CD133; experiment: Tunicamycin glycosylation inhibition, Western blot of Caco-2 lysates; format: binding; settings: Caco-2 cells treated with tunicamycin
# Procedure: (§1) FIG. 3: Specificity of antibody produced by Hybridoma Clone 7. (A) Flow cytometry. Cells were incubated with primary antibody from either Hybridoma Clone 7 or 293C3 (Militenyi), followed by incubation with a labeled secondary antibody, and then analyzed by flow cytometry. Antibody from the newly developed anti-CD133 Hybridoma Clone 7 (open black histogram) stains very specifically the CD133-overexpressing cells, Caco-2 (iii), GBM6 (iv) and U87 cells transfected with CD133 (ii) but not CD133 negative U87 cells (i). Immunostaining using the monoclonal antibody produced by Hybridoma Clone 7 is compared to clone 293C3 (open grey histogram). Isotype control is represented by solid grey histogram. (B) Tunicamycin mediated glycosylation inhibition. Caco-2 cells were treated with increasing doses of tunicamycin (2.5, 5, 10, 20 μg/ml) for 3 days. DMSO treated cells or untreated cells served as controls. Cells were lysed and then analyzed by Western blotting using the monoclonal antibody produced by Hybridoma Clone 7 or GAPDH antibodies.
# Caco-2 cells were seeded in 6-well plates and treated with 2.5 μg/ml-20 μg/ml tunicarmycin or vehicle (medium containing 0.1% DMSO) for three days. […] The lysates were centrifuged to remove cell debris and then analyzed by western blotting using either Hybridoma Clone 7 or anti-GAPDH (Sigma-Aldrich Corp., St. Louis, Mo.) as primary antibodies.
# CD133 [2] = molecular target: T1, CD133; experiment: Flow cytometry specificity test on U87, CD133-transfected U87, Caco-2 and GBM6 cells; format: binding
# Procedure: as §1
# CD133-IRES GFP or CMV GFP constructs were transfected into U87 cells using FuGENE HD transfection reagent according to the manufacturer's instructions. Briefly, cells were plated in a 10 cm dish. Twelve hours later, 10 μg of the pDNA was diluted in serum-free growth DMEM and mixed with 40 μl of the transfection reagent. Following incubation for 15 minutes, the transfection mix was added to the cells. Forty-eight hours later, cells were harvested using non-enzymatic cell dissociation buffer (Sigma-Aldrich Corp., St. Louis, Mo.) for flow cytometry.
# Primary human glioblastoma GBM6 cells, U87, or Caco-2 cells were washed three times and suspended in 100 μl of PBS. […] Cells were further incubated with 10 μl of anti-mouse hylite 647 (1:40 dilution; American Qualex, San Clemente, Calif.) for 30 minutes at 4° C., washed three times, and analyzed by flow cytometry.
molecule,measurement,setting,value
B1,epitope recognized (glycosylated or not),CD133 [1],specifically binds to an non-glycosylated epitope
same,flow cytometry staining of non-transfected U87 cells,CD133 [2]; CD133^low/- U87 cells,did not appreciably stain
same,flow cytometry staining of cells that endogenously express CD133,CD133 [2]; Caco-2 and GBM6 cells,able to immunostain
same,flow cytometry staining of CD133-transfected U87 cells,CD133 [2]; U87 transfected with human CD133 cDNA,labeled CD133-transfected cells
